Here are results for one substance from paper PMC4728290.

The assay deals with human insulin receptor fused with Renilla luciferase 8 (human) (UniProt P06213).

Turning to bovine insulin (ligand), the EC50 of insulin for the insulin-induced BRET increase between hIR–Rluc8 and Grb2–Venus (m1 + m3), live HEK293 cells, insulin 0.001-10,000 nM amounted to 4.4 nM; the EC50 of insulin for the insulin-induced BRET increase between hIR–Rluc8 and IRS1–YFP (m1 + m2), live HEK293 cells, insulin 0.001-10,000 nM was 2.2 nM.
